The record followed here is the supplement of paper PMC9112550, “Optimization of the antimicrobial peptide Bac7 by deep mutational scanning” (BMC Biology, 2022).
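Further: peptides expressed intracellularly from a pBAD plasmid library in pooled LB shake-flask culture, induced with 0.3% L-arabinose, DNA abundance read by NGS, three biological replicates, DESeq2 with apeglm shrinkage.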

For this data set, the system named is Escherichia coli TOP10. Kind of data set: shrunken log2 fold change of peptide-encoding DNA abundance (4.5 h post-induction vs induction); higher = less antimicrobial activity (less host growth inhibition). Conditions: time post-induction: 4.5 h; library: site-saturation at positions 5, 18, 19, 20.
For the sequence RRIRYRPPRLPRPRPRPMVKPRP, the “shrunken log2 fold change” value is -0.574.

As for RRIRHRPPRLPRPRPRPQCFPRP, the “shrunken log2 fold change” value is -0.0477.

Take RRIRMRPPRLPRPRPRPKNMPRP: the “shrunken log2 fold change” value was -0.0276.

Consider RRIRYRPPRLPRPRPRPGSDPRP, for which the “shrunken log2 fold change” value was -0.898.

With RRIRDRPPRLPRPRPRPWKIPRP, the “shrunken log2 fold change” value was 0.0112.

On to RRIRPRPPRLPRPRPRPNWIPRP, for which the “shrunken log2 fold change” value is -0.441.

With RRIRCRPPRLPRPRPRPSDPPRP, the “shrunken log2 fold change” value is -0.317.

On to RRIRARPPRLPRPRPRPWCGPRP, for which the “shrunken log2 fold change” value stood at 0.0572.

As to RRIRLRPPRLPRPRPRPQYMPRP, the “shrunken log2 fold change” value is -0.0107.

Regarding RRIRWRPPRLPRPRPRPSRFPRP, the “shrunken log2 fold change” value was -0.0148.

In the case of RRIRPRPPRLPRPRPRPGPFPRP, the “shrunken log2 fold change” value came to 0.574.

For the sequence RRIRWRPPRLPRPRPRPFMFPRP, the “shrunken log2 fold change” value is -0.0915.

In the case of RRIRDRPPRLPRPRPRPNLCPRP, the “shrunken log2 fold change” value is 0.0227.

On to RRIRLRPPRLPRPRPRPVYKPRP, for which the “shrunken log2 fold change” value was -0.134.

For the sequence RRIRHRPPRLPRPRPRPNRDPRP, the “shrunken log2 fold change” value was -0.0852.

In the case of RRIRGRPPRLPRPRPRPHKMPRP, the “shrunken log2 fold change” value worked out at 0.0936.

As for RRIRTRPPRLPRPRPRPSRLPRP, the “shrunken log2 fold change” value stood at 0.0405.

In the case of RRIRSRPPRLPRPRPRPGMWPRP, the “shrunken log2 fold change” value was found to be 0.0949.

For RRIRTRPPRLPRPRPRPKDLPRP, the “shrunken log2 fold change” value stood at 0.0246.

For RRIRTRPPRLPRPRPRPEWIPRP, the “shrunken log2 fold change” value is 0.0842.

Regarding RRIRFRPPRLPRPRPRPWAMPRP, the “shrunken log2 fold change” value was -0.0609.

As for RRIRMRPPRLPRPRPRPMGGPRP, the “shrunken log2 fold change” value was determined as 0.131.

As to RRIRWRPPRLPRPRPRPEYWPRP, the “shrunken log2 fold change” value amounted to 0.388.

Consider RRIRQRPPRLPRPRPRPAQHPRP, for which the “shrunken log2 fold change” value was 0.189.

For RRIRFRPPRLPRPRPRPGQDPRP, the “shrunken log2 fold change” value is -0.0452.

Consider RRIRGRPPRLPRPRPRPYANPRP, for which the “shrunken log2 fold change” value stood at 0.0266.

For the sequence RRIRERPPRLPRPRPRPNFMPRP, the “shrunken log2 fold change” value is -0.178.

As for RRIRMRPPRLPRPRPRPKCHPRP, the “shrunken log2 fold change” value worked out at 0.335.

In the case of RRIRTRPPRLPRPRPRPIEYPRP, the “shrunken log2 fold change” value was -0.233.

As for RRIRFRPPRLPRPRPRPRPYPRP, the “shrunken log2 fold change” value was -0.175.

As for RRIRNRPPRLPRPRPRPYKGPRP, the “shrunken log2 fold change” value was -1.13.

Regarding RRIRWRPPRLPRPRPRPGRWPRP, the “shrunken log2 fold change” value is 0.742.

As to RRIRMRPPRLPRPRPRPPDAPRP, the “shrunken log2 fold change” value came to 1.53.

In the case of RRIRWRPPRLPRPRPRPGTHPRP, the “shrunken log2 fold change” value turned out to be 0.158.

Turning to RRIRVRPPRLPRPRPRPFDAPRP, the “shrunken log2 fold change” value was 0.0132.

Regarding RRIRERPPRLPRPRPRPHFDPRP, the “shrunken log2 fold change” value was -0.14.

On to RRIRHRPPRLPRPRPRPATEPRP, for which the “shrunken log2 fold change” value is 0.29.

Take RRIRGRPPRLPRPRPRPAYCPRP: the “shrunken log2 fold change” value was 0.114.

On to RRIRNRPPRLPRPRPRPVDRPRP, for which the “shrunken log2 fold change” value is 0.148.

For RRIRWRPPRLPRPRPRPSNMPRP, the “shrunken log2 fold change” value was -0.923.

Consider RRIRDRPPRLPRPRPRPQELPRP, for which the “shrunken log2 fold change” value is -0.238.

With RRIRERPPRLPRPRPRPVSKPRP, the “shrunken log2 fold change” value is -0.201.

Regarding RRIRTRPPRLPRPRPRPEDQPRP, the “shrunken log2 fold change” value came to 0.112.

As for RRIRYRPPRLPRPRPRPPILPRP, the “shrunken log2 fold change” value was -0.498.

Take RRIRVRPPRLPRPRPRPMDVPRP: the “shrunken log2 fold change” value was 0.0265.

For RRIRNRPPRLPRPRPRPPQTPRP, the “shrunken log2 fold change” value came to 0.424.

As for RRIRYRPPRLPRPRPRPTAQPRP, the “shrunken log2 fold change” value was 0.0778.

Turning to RRIRWRPPRLPRPRPRPNMQPRP, the “shrunken log2 fold change” value is -0.0262.

On to RRIRWRPPRLPRPRPRPSSQPRP, for which the “shrunken log2 fold change” value is -0.317.

As to RRIRLRPPRLPRPRPRPPHWPRP, the “shrunken log2 fold change” value is 0.38.

Turning to RRIRDRPPRLPRPRPRPGCGPRP, the “shrunken log2 fold change” value stood at 0.92.

With RRIRKRPPRLPRPRPRPGTFPRP, the “shrunken log2 fold change” value was found to be 0.253.

In the case of RRIRSRPPRLPRPRPRPFPKPRP, the “shrunken log2 fold change” value amounted to 0.107.

RRIRTRPPRLPRPRPRPRAQPRP: the “shrunken log2 fold change” value is 0.461.

Turning to RRIRARPPRLPRPRPRPIKWPRP, the “shrunken log2 fold change” value stood at 0.235.

On to RRIRHRPPRLPRPRPRPIKFPRP, for which the “shrunken log2 fold change” value is -0.0972.

As to RRIRFRPPRLPRPRPRPTMYPRP, the “shrunken log2 fold change” value is -0.459.

In the case of RRIRERPPRLPRPRPRPKMEPRP, the “shrunken log2 fold change” value was -0.0415.

Turning to RRIRNRPPRLPRPRPRPPLKPRP, the “shrunken log2 fold change” value was 0.0326.

Consider RRIRNRPPRLPRPRPRPAHRPRP, for which the “shrunken log2 fold change” value came to 0.264.

Take RRIRHRPPRLPRPRPRPAFTPRP: the “shrunken log2 fold change” value is -0.311.

With RRIRQRPPRLPRPRPRPNGDPRP, the “shrunken log2 fold change” value is 0.0171.

With RRIRDRPPRLPRPRPRPIKCPRP, the “shrunken log2 fold change” value was -0.0161.

For the sequence RRIRDRPPRLPRPRPRPRSNPRP, the “shrunken log2 fold change” value was found to be 0.148.

Turning to RRIRPRPPRLPRPRPRPCFQPRP, the “shrunken log2 fold change” value is -0.0314.

As to RRIRIRPPRLPRPRPRPGWLPRP, the “shrunken log2 fold change” value is -0.0831.

On to RRIRVRPPRLPRPRPRPLFEPRP, for which the “shrunken log2 fold change” value came to 0.109.

As to RRIRRRPPRLPRPRPRPGCSPRP, the “shrunken log2 fold change” value is 0.344.

Consider RRIRFRPPRLPRPRPRPSRVPRP, for which the “shrunken log2 fold change” value amounted to 0.0914.

RRIRLRPPRLPRPRPRPETFPRP: the “shrunken log2 fold change” value was 0.0211.

Turning to RRIRGRPPRLPRPRPRPEWCPRP, the “shrunken log2 fold change” value was 1.19.

As for RRIRYRPPRLPRPRPRPCFEPRP, the “shrunken log2 fold change” value is -0.614.

On to RRIRERPPRLPRPRPRPFHFPRP, for which the “shrunken log2 fold change” value is -0.787.

With RRIRFRPPRLPRPRPRPKGRPRP, the “shrunken log2 fold change” value is -0.0884.

Regarding RRIRHRPPRLPRPRPRPDSQPRP, the “shrunken log2 fold change” value was -0.194.

Consider RRIRVRPPRLPRPRPRPTCWPRP, for which the “shrunken log2 fold change” value was determined as 0.835.

On to RRIRERPPRLPRPRPRPDKQPRP, for which the “shrunken log2 fold change” value turned out to be 0.0325.

For the sequence RRIRIRPPRLPRPRPRPSAEPRP, the “shrunken log2 fold change” value was -0.0944.

Turning to RRIRPRPPRLPRPRPRPFFQPRP, the “shrunken log2 fold change” value is 0.0612.

Consider RRIRMRPPRLPRPRPRPWPFPRP, for which the “shrunken log2 fold change” value stood at 0.0942.

On to RRIRVRPPRLPRPRPRPNIRPRP, for which the “shrunken log2 fold change” value is -0.664.

For RRIRNRPPRLPRPRPRPSQNPRP, the “shrunken log2 fold change” value is -0.386.

Turning to RRIRPRPPRLPRPRPRPPNSPRP, the “shrunken log2 fold change” value is -0.0717.

With RRIRERPPRLPRPRPRPVEIPRP, the “shrunken log2 fold change” value is -0.0716.

Turning to RRIRNRPPRLPRPRPRPSWYPRP, the “shrunken log2 fold change” value is -0.81.

Consider RRIRHRPPRLPRPRPRPTNFPRP, for which the “shrunken log2 fold change” value is -0.398.

As to RRIRDRPPRLPRPRPRPVSMPRP, the “shrunken log2 fold change” value is -0.0171.

For RRIRERPPRLPRPRPRPIDSPRP, the “shrunken log2 fold change” value was -0.0823.

As to RRIRFRPPRLPRPRPRPEHRPRP, the “shrunken log2 fold change” value turned out to be 0.105.

For the sequence RRIRCRPPRLPRPRPRPQKYPRP, the “shrunken log2 fold change” value is -0.698.

Take RRIRTRPPRLPRPRPRPHNVPRP: the “shrunken log2 fold change” value is -0.141.

Turning to RRIRDRPPRLPRPRPRPNSKPRP, the “shrunken log2 fold change” value was -0.506.

In the case of RRIRMRPPRLPRPRPRPTIHPRP, the “shrunken log2 fold change” value is -0.134.

With RRIRCRPPRLPRPRPRPNPQPRP, the “shrunken log2 fold change” value was -0.359.

For RRIRHRPPRLPRPRPRPRVLPRP, the “shrunken log2 fold change” value was -0.0249.

For the sequence RRIRPRPPRLPRPRPRPGKGPRP, the “shrunken log2 fold change” value was 0.0267.

With RRIRFRPPRLPRPRPRPTHSPRP, the “shrunken log2 fold change” value stood at 0.207.

For the sequence RRIRMRPPRLPRPRPRPAQKPRP, the “shrunken log2 fold change” value turned out to be 1.2.

With RRIRERPPRLPRPRPRPTMPPRP, the “shrunken log2 fold change” value is -0.124.

Consider RRIRPRPPRLPRPRPRPPMYPRP, for which the “shrunken log2 fold change” value was -0.368.

Take RRIRLRPPRLPRPRPRPNYVPRP: the “shrunken log2 fold change” value is -0.566.

Turning to RRIRRRPPRLPRPRPRPQRVPRP, the “shrunken log2 fold change” value was 0.155.

As for RRIRTRPPRLPRPRPRPSKAPRP, the “shrunken log2 fold change” value was -0.0453.

Turning to RRIRIRPPRLPRPRPRPKDEPRP, the “shrunken log2 fold change” value was -0.00382.

RRIRYRPPRLPRPRPRPNDQPRP: the “shrunken log2 fold change” value was -0.819.

As to RRIRHRPPRLPRPRPRPQMTPRP, the “shrunken log2 fold change” value was -0.104.

With RRIRRRPPRLPRPRPRPFWWPRP, the “shrunken log2 fold change” value worked out at 0.528.

With RRIRWRPPRLPRPRPRPMPRPRP, the “shrunken log2 fold change” value came to 0.623.

Consider RRIRERPPRLPRPRPRPGQKPRP, for which the “shrunken log2 fold change” value was 0.2.

On to RRIRTRPPRLPRPRPRPLVPPRP, for which the “shrunken log2 fold change” value is 0.193.

RRIRVRPPRLPRPRPRPMEHPRP: the “shrunken log2 fold change” value was 0.0534.

As to RRIRIRPPRLPRPRPRPCSTPRP, the “shrunken log2 fold change” value was -0.484.

Regarding RRIRQRPPRLPRPRPRPHGNPRP, the “shrunken log2 fold change” value stood at 0.0941.

Consider RRIRFRPPRLPRPRPRPIHCPRP, for which the “shrunken log2 fold change” value is -0.138.

Take RRIRKRPPRLPRPRPRPQPMPRP: the “shrunken log2 fold change” value is 0.462.

RRIRNRPPRLPRPRPRPTVMPRP: the “shrunken log2 fold change” value worked out at 0.178.

On to RRIRNRPPRLPRPRPRPHWIPRP, for which the “shrunken log2 fold change” value was -0.322.

As for RRIRVRPPRLPRPRPRPYTSPRP, the “shrunken log2 fold change” value is -0.0679.

Turning to RRIRPRPPRLPRPRPRPVIHPRP, the “shrunken log2 fold change” value was -0.435.

Regarding RRIRHRPPRLPRPRPRPTRDPRP, the “shrunken log2 fold change” value stood at 0.054.

On to RRIRTRPPRLPRPRPRPLSRPRP, for which the “shrunken log2 fold change” value is -0.45.

As for RRIRTRPPRLPRPRPRPQDTPRP, the “shrunken log2 fold change” value was -0.284.

On to RRIRFRPPRLPRPRPRPGKVPRP, for which the “shrunken log2 fold change” value is -0.216.

With RRIRRRPPRLPRPRPRPEYYPRP, the “shrunken log2 fold change” value was -0.324.

For RRIRTRPPRLPRPRPRPDQKPRP, the “shrunken log2 fold change” value was -0.056.
